Experimental data: US20160311925A1 (UNIVERSITY OF ROCHESTER, published 2016)

T1: His-AmdR1R2-B (Staphylococcus aureus, UniProt Q5HH31 198-775)
T1 sequence: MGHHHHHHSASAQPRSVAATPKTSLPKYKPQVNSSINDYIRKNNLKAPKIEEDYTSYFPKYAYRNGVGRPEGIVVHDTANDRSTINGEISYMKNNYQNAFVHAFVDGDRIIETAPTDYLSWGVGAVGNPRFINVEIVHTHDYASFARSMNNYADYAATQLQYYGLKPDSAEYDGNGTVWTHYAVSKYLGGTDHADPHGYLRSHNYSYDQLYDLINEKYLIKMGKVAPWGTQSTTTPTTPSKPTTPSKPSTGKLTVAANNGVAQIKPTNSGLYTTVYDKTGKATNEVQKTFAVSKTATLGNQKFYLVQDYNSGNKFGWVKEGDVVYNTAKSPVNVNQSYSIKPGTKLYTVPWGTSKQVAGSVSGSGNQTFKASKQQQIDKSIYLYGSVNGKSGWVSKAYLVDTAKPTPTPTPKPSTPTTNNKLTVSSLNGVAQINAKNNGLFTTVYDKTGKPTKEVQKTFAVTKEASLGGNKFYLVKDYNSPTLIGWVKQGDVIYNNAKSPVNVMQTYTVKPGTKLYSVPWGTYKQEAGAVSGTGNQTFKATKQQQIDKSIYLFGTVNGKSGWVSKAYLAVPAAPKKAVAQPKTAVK

B1: anti-Amd mAb Amd1.6 (antibody, IgG1, V domains shown)
VH: QSGTVLARPGTSVKMSCKASGYSFTNYWMHWVRQRPGQGLEWIGSIYPGNSDTTYNQKFKDKAKLTAVTSASTAYMELSSLTNEDSAVYYCTGDDYSRFSYWGQGTLVTVSA
VL: SIVMTQTPKFLLVSAGDRLTITCKASQSVSNDVAWYQQKPGQSPKLLIYYTSNRYTGVPDRFTGSGYGTDFTFTISTVQAEDLAVYFCQQDYNSPWTFGGGTK
notes: Mouse hybridoma mAb (Fusion #1), IgG1; The variable domains are incomplete at the termini; also called mAb1.6
B2: anti-Amd mAb Amd1.1 (antibody, IgG1, V domains shown)
VH: QQSGAELVKPGASVKLSCTASGFNIKDTYIHWVKQRPEQGLEWIGRIDPANGITNYDPKFQGRATITADTSSNIAYLQLTSLTSEGTAVYYCARGGYLSPYAMDYWGQGTSVTVSS
VL: ENVLTQSPAIMSASLGEKVTMTCRASSSVNYMFWFQQKSDASPKLWIYYTSNLAPGVPARFSGSGSGNSYSLTISSMEGEDAATYYCQEFTSFPYTFG
B3: anti-Amd mAb Amd2.2 (antibody, V domains shown)
VH: ESGPELVKPGASVKISCKASGYTFTDYNMHWVRQSHGKSLEWIGYIYPYNGGTGYNQKFKSKATLTVDNSSSTAYMELRSLTSEDSAVYYCAREDGYYGYFDYWGQGTTLTGSS
VL: EIVLTQSPAITAASLGQKVTITCSASSSVNYMHWYQQKSGTSPKPWIYEISKLASGVPARFSGSGSGTSYSLTISSMEAEDAAIYYCQQWNYPLITFGAGTKLELK
notes: Mouse hybridoma mAb (Fusion #2), IgG1; The VH is incomplete at the N-terminus
B4: anti-Amd mAb Amd1.11 (antibody, V domains shown)
VH: QIQLVQSGPELKKPGETVKISCKASGYTFTNYGMNWVKQAPGKGLEWMGWINTYTGEPTYADDFKGRFAFSLETSASTAYLLINNLKNEDTATYFCARRDGYFDAMDYWGQGTSVTVSS
VL: DILLTQSPAILSVSPGERVSFSCRASQSIGTSIHWYQQRTNGSPRLLIKYASESISGIPSRFSGSGSGTDFTLSINSVESEDIADYYCQQSNSWPALTFG
notes: Mouse hybridoma mAb (Fusion #1), IgG1; The VL is incomplete at the C-terminus
B5: anti-Amd mAb Amd1.9 (antibody, V domains shown)
VH: VESGGGLVKPGGSLKLSCAASGFTFSSYAMSWVRQTPKKSLEWVASITSGGSAYYPDSVKGRFTISRDNARNILNLQMSSLRSEDTAMYYCARDDGYFDYWGQGTTLTVSS
VL: DIQMTQSPASLSVSVGETVTITCRTSENIFSNFAWYQQQPGKSPQLLVYGATNLADGVPSRFSGSGSGTQYSLKITSLQSEDFGSYYCQHFWGSPWTF
notes: Mouse hybridoma mAb (Fusion #1), IgG1; The variable domains are incomplete at the termini

What was measured:
[1] = target: T1, His-AmdR1R2-B; experiment: cell-based or functional assay
[2] = target: T1, His-AmdR1R2-B; experiment: SPR, Biacore T-200; immobilized (captured) mAb, soluble His-AmdR1R2-B; average
Description: (§1) The capture (association, t=0 to 120 sec) and release (dissociation, t=120 to 420 sec) phases are presented. […] Measurements were made according the manufacturer's instructions and kinetic data were analyzed using biomolecular interaction analysis (BIA) evaluation software (version 3.1) from Biacore AB.
(§2) The affinity of immobilized anti-Amd mAbs for soluble His-AmdR1R2-B was measured using surface plasmon resonance technology on a Biacore T-200.

[3] = target: T1, His-AmdR1R2-B; experiment: SPR, Biacore T-200; mAb captured by rabbit anti-mouse Fc IgG on a CM-5 chip, Amd at 1.56 to 25 nM; the single run shown in FIG. 4
Description: as §1, §2

[4] = target: T1, His-AmdR1R2-B; experiment: SPR (Biacore T-200): Ab 1.6 (20nM) captured on immobilized rabbit anti-mouse Fc (RamFc), soluble Amd flowed at 1.56 to 25 nM
Description: as §1, §2

[5] = target: T1, His-AmdR1R2-B; experiment: SPR, Biacore T-200; immobilized (captured) mAb, soluble His-AmdR1R2-B
Description: as §1, §2

Binder	Kd [5]	further results
B1	–	IC50 (read off the curve) [1]: ~2 µg/mL; Kd [2]: 2.1 nM; Kd [3]: ~1 nM; Kd [4]: 1.03 nM
B2	2.5 nM	–
B3	1.4 nM	–
B4	3.4 nM	–
B5	2.6 nM	–
